Assays:
TFPI1-183-CD4 [1] = molecular target: TFPI1-183-CD4 (UniProt P10646)
TFPI1-276-CD4 [2] = molecular target: TFPI1-276-CD4 (UniProt P10646)
TFPI1-183-CD4 [3] = molecular target: TFPI1-183-CD4 (UniProt P10646); assay: flow cytometry, DAP.3 transfectants incubated with increasing FXa
TFPI1-276-CD4 [4] = molecular target: TFPI1-276-CD4 (UniProt P10646); assay: as above
[5] = system: synthetic C-terminal hirudin dodecapeptide analog comprising hirudin residues 53-64, with sulfato-Tyr64 (American Diagnostica)
[6] = system: native full-length hirudin (Biopharm)

## FXa
TFPI1-183-CD4 [1]
  proteolytic activity of FXa (chromogenic substrate S-2765; time required to reach OD405=0.1): FXa activity was inhibited by expressed TFPI-CD4 in a dose dependent manner with the greatest inhibition noted when low concentrations of FXa (0.16 nM) were added
TFPI1-276-CD4 [2]
  proteolytic activity of FXa (chromogenic substrate S-2765; time required to reach OD405=0.1): FXa activity was inhibited by expressed TFPI-CD4 in a dose dependent manner with the greatest inhibition noted when low concentrations of FXa (0.16 nM) were added

## FXa (from UniProt P00742 41-488) (enzyme)
TFPI1-183-CD4 [3]
  FXa concentration at which significant binding was detected: 0.02 nM
TFPI1-276-CD4 [4]
  FXa concentration at which significant binding was detected: 0.02 nM

## thrombin
[5]
  thrombin-dependent catalytic activity (cleavage of chromogenic substrate S-2238): the dodecapeptide did not influence thrombin-dependent catalytic activity as measured by cleavage of S-2238
[6]
  thrombin-dependent catalytic activity (cleavage of chromogenic substrate S-2238): no chromogenic conversion was observed with thrombin incubated with PPACK-HCl or hirudin as compared to thrombin incubated without inhibitor

Reference: US9376684
